The Human Domainome abundance scans (Beltran et al. 2025)
± gives the uncertainty stated by the source.

B1: POU domain, class 4, transcription factor 1, residues 266 to 347; numbered along this chain, Q01851 (parent)
chain: RELEAFAERFKQRRIKLGVTQADVGSALANLKIPGVGSLSQSTICRFESLTLSHNNMIALKPILQAWLEEAEGAQREKMNKP

Variants of: B1
Assay: abundance fitness (aPCA) (normalised: wild type 0, dead -1); higher = more abundant; growth selection in yeast, the domain comes from the species named
Settings: Homo sapiens

Row | Variant | abundance fitness
1 | RELEAFAERFKQRRIKLGVTQADVGSLLANLKIPGVGSLSQSTICRFESLTLSHNNMIALKPILQAWLEEAEGAQREKMNKP [A27L] | -0.288 ± 0.06
2 | RELEAFAERFKQRRIKLGVTQADVGSMLANLKIPGVGSLSQSTICRFESLTLSHNNMIALKPILQAWLEEAEGAQREKMNKP [A27M] | -0.175 ± 0.11
3 | RELEAFAERFKQRRIKLGVTQADVGSNLANLKIPGVGSLSQSTICRFESLTLSHNNMIALKPILQAWLEEAEGAQREKMNKP [A27N] | -0.071 ± 0.12
4 | RELEAFAERFKQRRIKLGVTQADVGSPLANLKIPGVGSLSQSTICRFESLTLSHNNMIALKPILQAWLEEAEGAQREKMNKP [A27P] | -1.23 ± 0.27
5 | RELEAFAERFKQRRIKLGVTQADVGSQLANLKIPGVGSLSQSTICRFESLTLSHNNMIALKPILQAWLEEAEGAQREKMNKP [A27Q] | -0.046 ± 0.058
6 | RELEAFAERFKQRRIKLGVTQADVGSRLANLKIPGVGSLSQSTICRFESLTLSHNNMIALKPILQAWLEEAEGAQREKMNKP [A27R] | -0.081 ± 0.036
7 | RELEAFAERFKQRRIKLGVTQADVGSSLANLKIPGVGSLSQSTICRFESLTLSHNNMIALKPILQAWLEEAEGAQREKMNKP [A27S] | -0.023 ± 0.058
8 | RELEAFAERFKQRRIKLGVTQADVGSTLANLKIPGVGSLSQSTICRFESLTLSHNNMIALKPILQAWLEEAEGAQREKMNKP [A27T] | -0.069 ± 0.07
9 | RELEAFAERFKQRRIKLGVTQADVGSVLANLKIPGVGSLSQSTICRFESLTLSHNNMIALKPILQAWLEEAEGAQREKMNKP [A27V] | -0.16 ± 0.04
10 | RELEAFAERFKQRRIKLGVTQADVGSWLANLKIPGVGSLSQSTICRFESLTLSHNNMIALKPILQAWLEEAEGAQREKMNKP [A27W] | -0.088 ± 0.04
11 | RELEAFAERFKQRRIKLGVTQADVGSYLANLKIPGVGSLSQSTICRFESLTLSHNNMIALKPILQAWLEEAEGAQREKMNKP [A27Y] | -0.041 ± 0.19
12 | RELEAFAERFKQRRIKLGVTQADVGSAAANLKIPGVGSLSQSTICRFESLTLSHNNMIALKPILQAWLEEAEGAQREKMNKP [L28A] | -0.422 ± 0.032
13 | RELEAFAERFKQRRIKLGVTQADVGSACANLKIPGVGSLSQSTICRFESLTLSHNNMIALKPILQAWLEEAEGAQREKMNKP [L28C] | -0.042 ± 0.039
14 | RELEAFAERFKQRRIKLGVTQADVGSADANLKIPGVGSLSQSTICRFESLTLSHNNMIALKPILQAWLEEAEGAQREKMNKP [L28D] | -0.624 ± 0.065
15 | RELEAFAERFKQRRIKLGVTQADVGSAEANLKIPGVGSLSQSTICRFESLTLSHNNMIALKPILQAWLEEAEGAQREKMNKP [L28E] | -0.782 ± 0.048
16 | RELEAFAERFKQRRIKLGVTQADVGSAFANLKIPGVGSLSQSTICRFESLTLSHNNMIALKPILQAWLEEAEGAQREKMNKP [L28F] | -0.129 ± 0.045
17 | RELEAFAERFKQRRIKLGVTQADVGSAHANLKIPGVGSLSQSTICRFESLTLSHNNMIALKPILQAWLEEAEGAQREKMNKP [L28H] | -0.332 ± 0.061

Row | Variant | abundance fitness
18 | RELEAFAERFKQRRIKLGVTQADVGSAKANLKIPGVGSLSQSTICRFESLTLSHNNMIALKPILQAWLEEAEGAQREKMNKP [L28K] | -0.601 ± 0.047
19 | RELEAFAERFKQRRIKLGVTQADVGSAMANLKIPGVGSLSQSTICRFESLTLSHNNMIALKPILQAWLEEAEGAQREKMNKP [L28M] | -0.09 ± 0.037
20 | RELEAFAERFKQRRIKLGVTQADVGSANANLKIPGVGSLSQSTICRFESLTLSHNNMIALKPILQAWLEEAEGAQREKMNKP [L28N] | -0.459 ± 0.071
21 | RELEAFAERFKQRRIKLGVTQADVGSAQANLKIPGVGSLSQSTICRFESLTLSHNNMIALKPILQAWLEEAEGAQREKMNKP [L28Q] | -0.628 ± 0.052
22 | RELEAFAERFKQRRIKLGVTQADVGSASANLKIPGVGSLSQSTICRFESLTLSHNNMIALKPILQAWLEEAEGAQREKMNKP [L28S] | -0.639 ± 0.043
23 | RELEAFAERFKQRRIKLGVTQADVGSATANLKIPGVGSLSQSTICRFESLTLSHNNMIALKPILQAWLEEAEGAQREKMNKP [L28T] | -0.312 ± 0.042
24 | RELEAFAERFKQRRIKLGVTQADVGSAVANLKIPGVGSLSQSTICRFESLTLSHNNMIALKPILQAWLEEAEGAQREKMNKP [L28V] | -0.074 ± 0.025
25 | RELEAFAERFKQRRIKLGVTQADVGSAWANLKIPGVGSLSQSTICRFESLTLSHNNMIALKPILQAWLEEAEGAQREKMNKP [L28W] | -0.555 ± 0.033
26 | RELEAFAERFKQRRIKLGVTQADVGSAYANLKIPGVGSLSQSTICRFESLTLSHNNMIALKPILQAWLEEAEGAQREKMNKP [L28Y] | -0.439 ± 0.066
27 | RELEAFAERFKQRRIKLGVTQADVGSALCNLKIPGVGSLSQSTICRFESLTLSHNNMIALKPILQAWLEEAEGAQREKMNKP [A29C] | 0.128 ± 0.36
28 | RELEAFAERFKQRRIKLGVTQADVGSALENLKIPGVGSLSQSTICRFESLTLSHNNMIALKPILQAWLEEAEGAQREKMNKP [A29E] | 0.036 ± 0.11
29 | RELEAFAERFKQRRIKLGVTQADVGSALGNLKIPGVGSLSQSTICRFESLTLSHNNMIALKPILQAWLEEAEGAQREKMNKP [A29G] | 0.132 ± 0.1
30 | RELEAFAERFKQRRIKLGVTQADVGSALINLKIPGVGSLSQSTICRFESLTLSHNNMIALKPILQAWLEEAEGAQREKMNKP [A29I] | -0.019 ± 0.13
31 | RELEAFAERFKQRRIKLGVTQADVGSALKNLKIPGVGSLSQSTICRFESLTLSHNNMIALKPILQAWLEEAEGAQREKMNKP [A29K] | 0.02 ± 0.14
32 | RELEAFAERFKQRRIKLGVTQADVGSALLNLKIPGVGSLSQSTICRFESLTLSHNNMIALKPILQAWLEEAEGAQREKMNKP [A29L] | -0.092 ± 0.13
33 | RELEAFAERFKQRRIKLGVTQADVGSALPNLKIPGVGSLSQSTICRFESLTLSHNNMIALKPILQAWLEEAEGAQREKMNKP [A29P] | -0.184 ± 0.16
